# Measured values reported in patent US20240010720A1 (IOMX THERAPEUTICS, published 2024).
# Read-outs that look alike come from different tables or passages of the source.
# T1: IGSF11 ECD fused to murine-Fc (human; mouse, UniProt Q5DX21 23-241)
# T1 construct: also called Fc-fusion IGSF11 ECD; full-length ECD of IGSF11; not shown: murine Fc
# T1 sequence: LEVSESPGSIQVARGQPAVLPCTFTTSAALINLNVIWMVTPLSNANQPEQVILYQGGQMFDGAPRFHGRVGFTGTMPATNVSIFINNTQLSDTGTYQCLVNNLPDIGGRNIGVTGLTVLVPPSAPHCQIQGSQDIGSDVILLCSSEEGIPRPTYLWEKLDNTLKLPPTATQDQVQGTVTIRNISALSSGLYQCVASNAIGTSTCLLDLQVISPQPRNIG
# T2: IgV domain of human IGSF11 fused to murine IgG2a Fc-region (human; mouse, UniProt Q5DX21 23-143)
# T2 construct: also called IgV-like domain mFc fusion; not shown: murine IgG2a Fc-region
# T2 sequence: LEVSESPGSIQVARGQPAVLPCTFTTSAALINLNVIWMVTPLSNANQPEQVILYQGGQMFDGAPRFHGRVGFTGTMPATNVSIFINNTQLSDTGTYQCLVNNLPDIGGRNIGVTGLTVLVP
# T3: human IGSF11 (VSIG3) on cells (human, UniProt Q5DX21 23-431)
# T3 sequence: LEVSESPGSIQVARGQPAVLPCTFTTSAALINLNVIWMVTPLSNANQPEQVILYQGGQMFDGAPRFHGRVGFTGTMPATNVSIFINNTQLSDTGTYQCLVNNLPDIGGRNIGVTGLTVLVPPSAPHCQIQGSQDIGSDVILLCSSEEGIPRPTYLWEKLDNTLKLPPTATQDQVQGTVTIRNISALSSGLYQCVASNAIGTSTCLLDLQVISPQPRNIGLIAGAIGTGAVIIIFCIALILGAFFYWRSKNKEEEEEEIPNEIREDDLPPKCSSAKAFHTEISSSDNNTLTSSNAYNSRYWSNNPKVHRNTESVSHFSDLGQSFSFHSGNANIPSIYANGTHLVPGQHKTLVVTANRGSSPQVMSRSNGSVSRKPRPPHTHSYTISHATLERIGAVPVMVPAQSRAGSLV
# T4: His-tagged extracellular domain (ECD) of human IGSF11 (VSIG3) (human, UniProt Q5DX21 23-241)
# T4 construct: partly bought (SinoBiological 13094-H08H); also called IGSF11-HIS; HIS-IGSF11; not shown: HIS6 tag
# T4 sequence: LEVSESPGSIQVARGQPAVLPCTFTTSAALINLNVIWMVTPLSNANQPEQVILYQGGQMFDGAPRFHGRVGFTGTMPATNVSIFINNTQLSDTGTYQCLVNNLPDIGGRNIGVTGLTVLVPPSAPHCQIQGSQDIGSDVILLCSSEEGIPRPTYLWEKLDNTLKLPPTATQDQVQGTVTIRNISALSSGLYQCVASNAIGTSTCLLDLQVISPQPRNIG
# T5: recombinant human IGSF11 (VSIG3) extracellular domain (ECD) (human, UniProt Q5DX21 23-241, biotinylated where captured on streptavidin)
# T5 construct: also called biotinylated recombinant ECD-IGSF11; IGSF11 (ECD domain)
# T5 sequence: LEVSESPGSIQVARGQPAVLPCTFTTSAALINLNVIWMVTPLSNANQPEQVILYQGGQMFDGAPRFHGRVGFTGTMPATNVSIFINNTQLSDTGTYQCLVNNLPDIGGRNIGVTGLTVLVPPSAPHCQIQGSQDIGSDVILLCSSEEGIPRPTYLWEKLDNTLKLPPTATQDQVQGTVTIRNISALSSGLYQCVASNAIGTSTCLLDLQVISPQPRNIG
# T6: IgC2 domain of human IGSF11 fused to murine IgG2a Fc-region (human; mouse, UniProt Q5DX21 137-241)
# T6 construct: also called IgC2-like domain mFc fusion; not shown: murine IgG2a Fc-region
# T6 sequence: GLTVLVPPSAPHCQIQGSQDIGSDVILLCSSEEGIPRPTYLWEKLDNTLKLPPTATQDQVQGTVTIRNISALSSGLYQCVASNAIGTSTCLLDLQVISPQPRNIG
# What was measured:
# [1] = biological target: T1, IGSF11 ECD fused to murine-Fc; test: ELISA, IgG
# Description: (§1) Expi293 cells (ThermoFisher) were transiently transfected with DNA sequences encoding the applicable IGSF11 domain-mFc fusions according to the manufacturer's instructions, and cultured under conditions suitable to the IGSF11 domain fusion. Cell supernatants were harvested 5 days post transfection and the expressed Fc-protein purified via Protein A affinity chromatography (GE Healthcare). IGSF11 domain Fc-fusion proteins were re-buffered into PBS pH7.4. […] The surface was blocked with 2% (w/v) skim milk powder in PBST. After three wash cycles with PBST, a dilution series of IgG-format ABPs was transferred to the immobilized the Fc-fusion IGSF11 ECD or the IGSF11 domains and incubated for 1 h. After removing all unbound antibodies by 3 wash cycles with PBST, bound IgG ABPs were detected with a goat anti-human IgG antibody conjugated with horseradish peroxidase. After three wash cycles with PBST the ELISA was developed with TMB substrate.
# [2] = biological target: T2, IgV domain of human IGSF11 fused to …; test: ELISA, IgG
# Description: as §1
# [3] = biological target: T3, human IGSF11 (VSIG3) on cells; test: FACS, IgG1-format antibodies; CL-11 cells (C), a line that does not express IGSF11 (specificity control), IGSF11 siRNA (KD)
# [4] = biological target: T3, human IGSF11 (VSIG3) on cells; test: FACS, IgG1-format antibodies; M579-A2-luc cells (M) treated with scrambled control siRNA (SC)
# [5] = biological target: T3, human IGSF11 (VSIG3) on cells; test: FACS, HEK cells expressing IGSF11
# [6] = biological target: T4, His-tagged extracellular domain (ECD) …; test: ELISA EC50 grade, IgG1
# [7] = biological target: T5, recombinant human IGSF11 (VSIG3) …; test: SPR, IgG1
# [8] = biological target: T6, IgC2 domain of human IGSF11 fused to …; test: ELISA, IgG
# Description: as §1
# [9] = biological target: T1, IGSF11 ECD fused to murine-Fc; test: ELISA, IgG; remark: listed apart in the source
# Description: as §1
# [10] = biological target: T3, human IGSF11 (VSIG3) on cells; test: FACS, IgG1-format antibodies; CL-11 cells (C), a line that does not express IGSF11 (specificity control), scrambled control siRNA (SC)
# [11] = biological target: T3, human IGSF11 (VSIG3) on cells; test: FACS, IgG1-format antibodies; DMS 273 cells (D) treated with scrambled control siRNA (SC)
# [12] = biological target: T5, recombinant human IGSF11 (VSIG3) …; test: BLI, IgG1
# [13] = biological target: T3, human IGSF11 (VSIG3) on cells; test: FACS, IgG1-format antibodies; DMS 273 cells (D) treated with IGSF11 siRNA (KD)
# [14] = biological target: T3, human IGSF11 (VSIG3) on cells; test: FACS, IgG1-format antibodies; M579-A2-luc cells (M) treated with IGSF11 siRNA (KD)
EC50 [1] [nM],EC50 [2] [nM],percentage binding (FACS heat-map) [3] [%],percentage binding (FACS heat-map) [4] [%],EC50 [5] [nM],EC50 [6] [nM],Kd [7] [nM],EC50 [8] [nM],EC50 [9] [nM],percentage binding (FACS heat-map) [10] [%],percentage binding (FACS heat-map) [11] [%],Kd [12] [nM],percentage binding (FACS heat-map) [13] [%],percentage binding (FACS heat-map) [14] [%],Binder
1 to 20,< 1,–,–,–,–,–,–,–,–,–,–,–,–,"C-025 (IgG1 format) (antibody, V domains shown, wildtype human IgG1 and kappa or lambda constant regions) VH: not shown VL: SYELTQPPSVSVSPGQTASITCSGDKLGDKYASWYQQKPGQSPVLVIYQDSKRPSGIPERFSGSNSGNTATLTISGTQAEDEADYYCQSYATAGFVFGGGTKLTVL"
–,–,3.47,11.6,> 50,0.02 to 0.05,> 500,1 to 20,1 to 20,3.6,64.4,20 to 30,3.81,2.01,"A-026 (IgG1 format) (antibody, V domains shown, human IgG1 format) VH: QVQLQESGPGLVKPSQTLSLTCTVSGGSISSGGYYWSWIRQHPGKGLEWIGYIYYSGSTYYNPSLKSRVTISVDTSKNQFSLKLSSVTAADTAVYYCASWSLGTSNHGWFDPWGQGTLVTVSS VL: QSVLTQPPSASGTPGQRVTISCSGSSSNIGSNTVNWYQQLPGTAPKLLISDNNNRPSGVPDRFSGSKSGTSASLAITGLQAEDEADYYCQSYDSNLSGWVFGGGTKLTVL"
